From patent US20230060095A1 (Regeneron, published 2023)
Residue numbers refer to the chain shown, from its start. One block for each binder: values may come before it.

How the values were obtained:
[1] = target: T1, PRAME peptide on HLA-A*02:01 (human); experiment: multimer staining
T1 peptide: RLDQLLRHV

[2] = target: T2, soluble HLA-A2:PRAME (312-320) tetramer (human); experiment: flow cytometry, soluble pMHC tetramer on CHO cells expressing the TCR
T2 construct: Commercial tetramer (MBL International); construct limits, biotin tag and streptavidin/fluorophore not described; also called PRAME/HLA tetramer reagent

binding result [1]: recognises
Cell Frequency ≥1000 MFI, ≥1% (% tetramer positive cells in the Ag+ gate) [2]: 11.5%
B1: PN46914 (TCR, V domains shown)
V domain 1: AQKVTQAQPEISVVEKEDVTLDCVYETRDTTYYLFWYKQPPSGELVFLIRRNSFDEQNEISGRYSWNFQKSTSSFNFTITASQVVDSAVYFCALSEGYNQGGKLIFGQGTELSVKP
V domain 2: DVKVTQSSRYLVKRTGEKVFLECVQDMDHENMFWYRQDPGLGLRLIYFSYDVKMKEKGDIPEGYSVSREKKERFSLILESASTNQTSMYLCASGADSNQPQHFGDGTRLSIL
notes: stained with anti-mouse TCR constant region antibody H57-597) and full-length chains were expressed on CHO cells

binding result [1]: recognises
Cell Frequency ≥1000 MFI, ≥1% (% tetramer positive cells in the Ag+ gate) [2]: 72.5%
B2: PN46723 (TCR, V domains shown)
V domain 1: EDQVTQSPEALRLQEGESSSLNCSYTVSGLRGLFWYRQDPGKGPEFLFTLYSAGEEKEKERLKATLTKKESFLHITAPKPEDSATYLCAVQEDGGSQGNLIFGKGTKLSVKP
V domain 2: DAGVTQSPTHLIKTRGQQVTLRCSPISGHKSVSWYQQVLGQGPQFIFQYYEKEERGRGNFPDRFSARQFPNYSSELNVNALLLGDSALYLCASSRDINEKLFFGSGTQLSVL
notes: as for B1

binding result [1]: recognises
Cell Frequency ≥1000 MFI, ≥1% (% tetramer positive cells in the Ag+ gate) [2]: 11%
B3: PN46678 (TCR, V domains shown)
V domain 1: AQKVTQAQPEISVVEKEDVTLDCVYETRDTTYYLFWYKQPPSGELVFLIRRNSFDEQNEISGRYSWNFQKSTSSFNFTITASQVVDSAVYFCALSEFDRGSTLGRLYFGRGTQLTVWP
V domain 2: B2 V domain 2
notes: as for B1

binding result [1]: recognises
Cell Frequency ≥1000 MFI, ≥1% (% tetramer positive cells in the Ag+ gate) [2]: 62.1%
B4: PN46714 (TCR, V domains shown)
V domain 1: B2 V domain 1 with E92A
V domain 2: B2 V domain 2 with R95L, E99S, K100P, F102H, S105N, Q108R, S110T, L112T
notes: as for B1

binding result [1]: recognises
Cell Frequency ≥1000 MFI, ≥1% (% tetramer positive cells in the Ag+ gate) [2]: 17.9%
B5: PN46735 (TCR, V domains shown)
V domain 1: DAKTTQPNSMESNEEEPVHLPCNHSTISGTDYIHWYRQLPSQGPEYVIHGLTSNVNNRMASLAIAEDRKSSTLILHRATLRDAAVYYCILREYMYSGGGADGLTFGKGTHLIIQP
V domain 2: DAGVTQSPTHLIKTRGQQVTLRCSPISGHKSVSWYQQVLGQGPQFIFQYYEKEERGRGNFPDRFSARQFPNYSSELNVNALLLGDSALYLCASSFQAGVNYGYTFGSGTRLTVV
notes: as for B1
